Experimental data: patent publication US20130251707A1

Target: human TNFR1-Fc (human) (UniProt P19438)
Assay: quartz crystal microbalance, TNFR1-Fc immobilized

Chain of human TNFR1-Fc (human) (P19438 29-211 limits assumed): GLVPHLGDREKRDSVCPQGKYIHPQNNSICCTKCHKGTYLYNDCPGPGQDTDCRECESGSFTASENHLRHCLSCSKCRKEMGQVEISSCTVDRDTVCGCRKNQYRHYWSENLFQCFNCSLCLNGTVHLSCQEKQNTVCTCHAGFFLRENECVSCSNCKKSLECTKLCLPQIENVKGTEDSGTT

B1: scFv IZI-06.1 (scFv, V domains shown, part only)
VH: QVQLVQSGAEVKKPGSSVKVSCKASGYTFTDFYINWVRQAPGQGLEWIGEIYPYSGHAYYNEKFKARVTITADKSTSTAYMELSSLRSEDTAVYYCARWDFLDYWGQGTTVTVSS
VL: DIVMTQSPLSLPVTPGEPASISCRSSQSLLHSNGNTYLHWYLQKPGQSPQLLIYTVSNRFSGVPDRFSGSGSGTDFTLKISRVEAEDVGVYYCSQSTHVPYTFGGGTKVEIKR
modifications: linker and tags not stated
Q: B1 was tested. Which Kd did it give?
A: The Kd was 2.2 nM.

Q: And the fold reduced affinity (against ATROSAB and H398)?
A: Its fold reduced affinity (against ATROSAB and H398) is 10 fold.

Q: And the koff?
A: Its koff is 0.00076 s⁻¹.

Q: What about the kon of the same binder?
A: Its kon is 350000 M⁻¹ s⁻¹.
